According to patent US20220073643A1 (NANJING GENSCRIPT BIOTECH, published 2022):
Numbering of substitutions follows the chain as printed. Values belong to the binder of their own block, whether it stands above or below them.

Molecular target: human Claudin18.2 (human)
Assay: cell-based or functional assay

B1: 420H7E6 (antibody, V domains shown)
VH: DVQLVESGGGLVQPGGSRKLSCVTSGFTFSSFGMHWIRQAPEKGLEWVAFISGGGSPIFYADSVKGRFTVSRDNPKNTLFLQMTGLRSEDTAMYFCARFYFGNSFAYWGQGTLVTVSA
VL: DIVMAQSPSSLTVTAGEKVTMNCRSSQSLFNSGNQKNYLTWYQQKPGQPPKLLIYWASTRESGVPVRFTGSGSGTDFTLTISSVQAEDLAVYYCQTGFSYPLTFGPGTKLELK
- CDC % Relative activity: 48.8%
- CDC EC50: 3.9 µg/mL

B3: 207F8G5 (antibody, V domains shown)
VH: QAYLQQSGAELVRSGASVKMSCKASGFTFTSYNIHWVKQTPGQGLEWIGYISPGNGGSNYNLKFKDKATLTSATSSSTAYMQISSLTSEDSAVYFCATGRGFAYWGQGTLVTVSA
VL: DIVMTQSPSSLTVTPGEKVTMSCKSSQSLFNSGNQKNYLIWYQQKPGQPPKLLIYRASTRDSGVPDRFTGSGSGTDFTLTISNVQAEDLAIYYCQNDYSYPLTFGAGTKLELK
- CDC % Relative activity: 627%
- CDC EC50: 0.305 µg/mL

B5: 420D5H5 (antibody, V domains shown)
VH: DVQLVESGGGLVQPGGSRKLSCAASGFTLSGFGMHWIRQTPEKGLEWVAYISSGSRPIYYVDTVEGRFTISRDNPKNTLFLQMTSLRSEDTAMYFCARFYYGNSFDHWGQGTLVTVSS
VL: DIVMTQSPSFLTVTAGEKVTMSCKSSQSLLNSGNQKNYLTWYQQKPGQPPKLLIYWASTRESGVPDRFTGSGSGTDFTLTIRGVQAEDLALYYCQNAYSFPLTFGAGTKLELK
- CDC % Relative activity: 78.3%
- CDC EC50: 2.2 µg/mL

B6: 203A6D5 (antibody, V domains shown)
VH: QVQLKQSGPGLVQPSQSLSITCTVSGFSLTRYGVHWVRQSPGKGLEWLGVIWSGGNTDYNAAFISRLNIRKDNSKSQVFFKMNSLKPNDTAIYYCARAAYFGNSFDYWGQGTTLTVSS
VL: B5 VL with F10S, T12P, E61D, R82S, G83S, L91V, A97N, S99I, F100Y
- CDC % Relative activity: 571%
- CDC EC50: 0.336 µg/mL

B7: 420G10G3 (antibody, V domains shown)
VH: B5 VH with L29F, P41A, V61A, E65Q, S118A
VL: B5 VL with R82S, G83S
- CDC % Relative activity: 72.4%
- CDC EC50: 2.63 µg/mL

B8: 420H3H9 (antibody, V domains shown)
VH: DVQLVESGGGLVQPGGSRKLSCAASGFTFSSFGMHWVRQAPEKGLEWVAYISSGSSTIYYAHSVKGRFTISRDNPKNTLFLQMTSLGSEDTAMYYCARFYYGNSFAYWGQGTLVTVSA
VL: B5 VL with F10S, M21L, L52M, R82S, G83S, L91D, S99T, F100Y, K109R
- CDC % Relative activity: 458%
- CDC EC50: 0.416 µg/mL

B10: 182D10F1 (antibody, V domains shown)
VH: QAYLQQSGAELVRSGASVKMSCKASGYTFSSYNMHWVKQTPGQGLEWIGYIYPGNGGTNYNQKFKGKATLTADTSSSTAYMQISSLTSEDSAVYFCLTGRGFTYWGQGTLVTVSA
VL: B3 VL with P15A, S22N, I40T, D61E, N83S, I91V, A106V
- CDC % Relative activity: 195%
- CDC EC50: 0.811 µg/mL

B11: 421H4G3 (antibody, V domains shown)
VH: B5 VH with T28S, L29F, M34L, V61A, E65K, Y101F, S118T
VL: B5 VL with K24R, K36R, R82N, G83S
- CDC % Relative activity: 65.9%
- CDC EC50: 2.89 µg/mL

B12: 422E8F9 (antibody, V domains shown)
VH: B5 VH with L29F, V61A, E65Q
VL: B5 VL with R82S, G83S
- CDC % Relative activity: 89.2%
- CDC EC50: 2.14 µg/mL

B14: 420F12G8 (antibody, V domains shown)
VH: B5 VH with T28A, L29F, V61A, E65K, A97V, S118A
VL: B5 VL with S22T, K24R, S28N, Y55S, R82S, G83S, A86P, L102F
- CDC % Relative activity: 52.6%
- CDC EC50: 3.27 µg/mL

B15: 422F4B6 (antibody, V domains shown)
VH: B8 VH with T28S, T57P, H62D, S63T, T69I, G87R, Y95F, F99I
VL: B5 VL with F10S, S28T, R82S, G83S, L91V, F100Y, A106S
- CDC % Relative activity: 31.6%
- CDC EC50: 6.03 µg/mL

More lines, now with the values ahead:

- CDC % Relative activity: 56.2%
- CDC EC50: 3.39 µg/mL
B2: 423C10E1 (antibody, V domains shown)
VH: B1 VH with I37V
VL: B1 VL with A5T, P49S, G97S, S99N

- CDC % Relative activity: 9.38%
- CDC EC50: 20.3 µg/mL
B4: 424G9G3 (antibody, V domains shown)
VH: QVQLQQSGPEVVRPGASVKMSCKGSGYTLNNFWMHWVKQRPGQGLEWIGMIDTSNGETRLNQIFKDKATLTVDKSSKTAYMQLSSLTSEDSAVYYCAPYGNFADWGQGTTLTVSS
VL: DVLLTQTPLSLPVSLGDQASISCRSSQSIVYGNGNTYLEWYLQKPGQSPKLLIYKVSSRFSGVPDRFSGSGSGTDFTLKITKVEAEDLGVYYCFQGSHVPFTFGSGTKLEIK

- CDC % Relative activity: 164%
- CDC EC50: 1.23 µg/mL
B9: 429G4E9 (antibody, V domains shown)
VH: B8 VH with T57P, H62D, S63T, G87R, Y95F, R98T
VL: B5 VL with F10S, S28T, P46S, R82S, G83S, L91V, F100Y, L102V, A106S, L110V

- CDC % Relative activity: 63%
- CDC EC50: 3.02 µg/mL
B13: 425B3D5 (antibody, V domains shown)
VH: B5 VH with L29F, V61A, E65Q
VL: B5 VL with R82S, G83S

- CDC % Relative activity: 96.6%
- CDC EC50: 2.08 µg/mL
B16: 425C6D3 (antibody, V domains shown)
VH: B5 VH with L29F, V61A, E65Q
VL: B5 VL with R82S, G83S

- CDC % Relative activity: 80%
- CDC EC50: 2.51 µg/mL
B17: 426H6E11 (antibody, V domains shown)
VH: B5 VH with L29F, V61A, E65Q
VL: B5 VL with S7F, S28T, R82S, G83S, K109N

- CDC % Relative activity: 331%
- CDC EC50: 0.607 µg/mL
B18: 429H6C5 (antibody, V domains shown)
VH: B8 VH with G44E, S63T, Q82R, A97V, A106V, Y107N
VL: B5 VL with F10S, V13A, L52M, T69A, R82S, G83S, L91V, S99I, F100Y, K109R

- CDC % Relative activity: 32.4%
- CDC EC50: 6.21 µg/mL
B19: 426D9F6 (antibody, V domains shown)
VH: B5 VH with L29F, V61A, E65K, S118A
VL: B5 VL with K36R, I81V, R82S, G83S

- CDC % Relative activity: 6.38%
- CDC EC50: 29.9 µg/mL
B20: 423B2B5 (antibody, V domains shown)
VH: B8 VH with T57P, A61S, H62D, S63T, T84S, G87R, Y95F, F99I, A106D, Y107H
VL: B5 VL with F10S, S22N, R82S, G83S, L91V, A97D, F100Y
